In IntAct's records for PubMed 35512704:

B1: Speckle-type POZ protein (Homo sapiens), O43791 (parent)
chain: MSRVPSPPPPAEMSSGPVAESWCYTQIKVVKFSYMWTINNFSFCREEMGEVIKSSTFSSGANDKLKWCLRVNPKGLDEESKDYLSLYLLLVSCPKSEVRAKFKFSILNAKGEETKAMESQRAYRFVQGKDWGFKKFIRRDFLLDEANGLLPDDKLTLFCEVSVVQDSVNISGQNTMNMVKVPECRLADELGGLWENSRFTDCCLCVAGQEFQAHKAILAARSPVFSAMFEHEMEESKKNRVEINDVEPEVFKEMMCFIYTGKAPNLDKMADDLLAAADKYALERLKVMCEDALCSNLSVENAAEILILADLHSADQLKTQAVDFINYHASDVLETSGWKSMVVSHPHLVAEAYRSLASAQCPFLGPPRKRLKQS
partner: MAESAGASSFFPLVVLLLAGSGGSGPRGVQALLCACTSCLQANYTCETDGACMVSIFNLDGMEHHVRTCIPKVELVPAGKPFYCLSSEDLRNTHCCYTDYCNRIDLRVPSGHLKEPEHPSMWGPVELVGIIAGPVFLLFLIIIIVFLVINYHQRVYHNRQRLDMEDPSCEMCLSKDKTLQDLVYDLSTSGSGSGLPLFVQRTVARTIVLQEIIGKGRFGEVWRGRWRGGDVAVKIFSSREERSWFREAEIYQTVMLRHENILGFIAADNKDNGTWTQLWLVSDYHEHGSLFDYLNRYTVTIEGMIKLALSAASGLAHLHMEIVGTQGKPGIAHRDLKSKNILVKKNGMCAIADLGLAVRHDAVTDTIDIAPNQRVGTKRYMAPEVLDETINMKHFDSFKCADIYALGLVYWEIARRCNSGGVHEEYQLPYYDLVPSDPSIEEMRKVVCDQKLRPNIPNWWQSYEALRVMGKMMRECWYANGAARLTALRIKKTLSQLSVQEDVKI
B2: Mothers against decapentaplegic homolog 4 (Homo sapiens), Q13485 (parent)
chain: MDNMSITNTPTSNDACLSIVHSLMCHRQGGESETFAKRAIESLVKKLKEKKDELDSLITAITTNGAHPSKCVTIQRTLDGRLQVAGRKGFPHVIYARLWRWPDLHKNELKHVKYCQYAFDLKCDSVCVNPYHYERVVSPGIDLSGLTLQSNAPSSMMVKDEYVHDFEGQPSLSTEGHSIQTIQHPPSNRASTETYSTPALLAPSESNATSTANFPNIPVASTSQPASILGGSHSEGLLQIASGPQPGQQQNGFTGQPATYHHNSTTTWTGSRTAPYTPNLPHHQNGHLQHHPPMPPHPGHYWPVHNELAFQPPISNHPAPEYWCSIAYFEMDVQVGETFKVPSSCPIVTVDGYVDPSGGDRFCLGQLSNVHRTEAIERARLHIGKGVQLECKGEGDVWVRCLSDHAVFVQSYYLDREAGRAPGDAVHKIYPSAYIKVFDLRQCHRQMQQQAATAQAAAAAQAAAVAGNIPGPGSVGGIAPAISLSAAAGIGVDDLRRLCILRMSFVKGWGPDYPRQSIKETPCWIEIHLHRALQLLDEVLHTMPIADPQPLD
partner: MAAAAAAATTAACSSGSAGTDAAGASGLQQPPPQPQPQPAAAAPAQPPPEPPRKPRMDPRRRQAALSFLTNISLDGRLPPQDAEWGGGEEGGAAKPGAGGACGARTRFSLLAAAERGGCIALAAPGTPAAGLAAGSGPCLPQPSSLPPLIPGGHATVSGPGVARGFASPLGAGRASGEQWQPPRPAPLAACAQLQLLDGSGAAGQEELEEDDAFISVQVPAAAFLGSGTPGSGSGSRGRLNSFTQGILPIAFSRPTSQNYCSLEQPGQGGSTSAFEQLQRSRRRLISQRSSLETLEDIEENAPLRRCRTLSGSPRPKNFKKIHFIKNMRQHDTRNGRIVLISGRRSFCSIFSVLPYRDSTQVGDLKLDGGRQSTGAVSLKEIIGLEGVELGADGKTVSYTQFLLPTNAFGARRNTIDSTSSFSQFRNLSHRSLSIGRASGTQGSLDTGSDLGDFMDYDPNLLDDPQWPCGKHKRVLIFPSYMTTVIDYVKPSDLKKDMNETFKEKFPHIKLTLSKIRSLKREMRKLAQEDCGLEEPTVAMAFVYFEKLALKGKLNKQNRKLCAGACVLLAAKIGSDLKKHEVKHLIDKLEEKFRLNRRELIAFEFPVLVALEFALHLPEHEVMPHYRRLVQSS
B3: Mothers against decapentaplegic homolog 4 (Homo sapiens), Q13485 (parent)
chain: B2 chain
partner: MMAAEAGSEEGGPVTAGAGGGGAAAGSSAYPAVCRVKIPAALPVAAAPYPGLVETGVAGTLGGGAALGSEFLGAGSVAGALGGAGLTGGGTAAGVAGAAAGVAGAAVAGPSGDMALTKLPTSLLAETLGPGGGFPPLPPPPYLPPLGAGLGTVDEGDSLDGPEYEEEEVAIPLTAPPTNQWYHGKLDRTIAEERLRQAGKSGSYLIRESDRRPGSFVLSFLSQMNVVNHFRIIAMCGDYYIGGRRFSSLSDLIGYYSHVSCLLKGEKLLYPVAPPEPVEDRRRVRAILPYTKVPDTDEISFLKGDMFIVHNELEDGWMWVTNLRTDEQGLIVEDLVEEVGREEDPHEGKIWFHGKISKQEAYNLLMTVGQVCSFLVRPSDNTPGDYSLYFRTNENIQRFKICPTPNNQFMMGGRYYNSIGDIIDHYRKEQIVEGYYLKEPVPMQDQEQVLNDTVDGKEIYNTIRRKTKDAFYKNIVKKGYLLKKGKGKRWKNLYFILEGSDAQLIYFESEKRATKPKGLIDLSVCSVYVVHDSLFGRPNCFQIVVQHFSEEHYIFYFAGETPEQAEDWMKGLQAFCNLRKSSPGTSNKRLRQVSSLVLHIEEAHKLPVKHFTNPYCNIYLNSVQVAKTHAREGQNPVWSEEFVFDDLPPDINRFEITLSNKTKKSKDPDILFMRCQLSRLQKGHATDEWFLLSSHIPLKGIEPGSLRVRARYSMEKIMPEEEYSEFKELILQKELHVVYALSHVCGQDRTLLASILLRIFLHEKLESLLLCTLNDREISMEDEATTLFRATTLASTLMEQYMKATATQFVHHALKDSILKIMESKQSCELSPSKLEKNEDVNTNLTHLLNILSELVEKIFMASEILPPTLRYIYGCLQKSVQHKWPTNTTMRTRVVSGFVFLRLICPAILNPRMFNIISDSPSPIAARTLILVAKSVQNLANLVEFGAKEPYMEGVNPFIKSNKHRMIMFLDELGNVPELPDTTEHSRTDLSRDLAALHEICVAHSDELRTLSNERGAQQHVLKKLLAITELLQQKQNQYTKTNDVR
B4: Mothers against decapentaplegic homolog 4 (Homo sapiens), Q13485 (parent)
chain: B2 chain
partner: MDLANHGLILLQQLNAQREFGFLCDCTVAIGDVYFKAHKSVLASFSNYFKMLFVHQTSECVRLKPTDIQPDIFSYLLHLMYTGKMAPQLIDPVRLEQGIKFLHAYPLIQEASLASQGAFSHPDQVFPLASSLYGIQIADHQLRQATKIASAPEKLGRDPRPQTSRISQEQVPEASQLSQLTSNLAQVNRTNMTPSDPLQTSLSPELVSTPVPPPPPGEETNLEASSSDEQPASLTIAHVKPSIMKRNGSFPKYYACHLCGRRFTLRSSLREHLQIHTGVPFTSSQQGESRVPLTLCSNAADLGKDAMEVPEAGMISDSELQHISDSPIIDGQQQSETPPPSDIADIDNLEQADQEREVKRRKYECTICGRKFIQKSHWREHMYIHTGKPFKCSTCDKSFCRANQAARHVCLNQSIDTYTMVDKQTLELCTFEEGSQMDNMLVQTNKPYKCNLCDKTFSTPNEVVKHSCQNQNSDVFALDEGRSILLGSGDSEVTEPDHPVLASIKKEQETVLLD
B5: Mothers against decapentaplegic homolog 4 (Homo sapiens), Q13485 (parent)
chain: B2 chain
partner: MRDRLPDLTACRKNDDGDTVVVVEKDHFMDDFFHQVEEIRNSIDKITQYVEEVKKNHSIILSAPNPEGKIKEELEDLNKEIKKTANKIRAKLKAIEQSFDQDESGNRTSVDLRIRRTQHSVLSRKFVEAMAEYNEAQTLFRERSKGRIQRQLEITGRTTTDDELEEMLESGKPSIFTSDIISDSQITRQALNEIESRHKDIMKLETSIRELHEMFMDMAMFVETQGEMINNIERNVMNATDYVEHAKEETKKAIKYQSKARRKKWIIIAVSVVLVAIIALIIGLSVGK
B6: Mothers against decapentaplegic homolog 4 (Homo sapiens), Q13485 (parent)
chain: B2 chain
partner: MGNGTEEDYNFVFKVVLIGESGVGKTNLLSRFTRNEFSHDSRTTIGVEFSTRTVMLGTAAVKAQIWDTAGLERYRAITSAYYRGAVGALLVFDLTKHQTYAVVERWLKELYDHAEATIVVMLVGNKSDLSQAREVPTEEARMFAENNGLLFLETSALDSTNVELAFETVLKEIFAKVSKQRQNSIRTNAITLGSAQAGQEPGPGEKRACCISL
B7: Mothers against decapentaplegic homolog 4 (Homo sapiens), Q13485 (parent)
chain: B2 chain
partner: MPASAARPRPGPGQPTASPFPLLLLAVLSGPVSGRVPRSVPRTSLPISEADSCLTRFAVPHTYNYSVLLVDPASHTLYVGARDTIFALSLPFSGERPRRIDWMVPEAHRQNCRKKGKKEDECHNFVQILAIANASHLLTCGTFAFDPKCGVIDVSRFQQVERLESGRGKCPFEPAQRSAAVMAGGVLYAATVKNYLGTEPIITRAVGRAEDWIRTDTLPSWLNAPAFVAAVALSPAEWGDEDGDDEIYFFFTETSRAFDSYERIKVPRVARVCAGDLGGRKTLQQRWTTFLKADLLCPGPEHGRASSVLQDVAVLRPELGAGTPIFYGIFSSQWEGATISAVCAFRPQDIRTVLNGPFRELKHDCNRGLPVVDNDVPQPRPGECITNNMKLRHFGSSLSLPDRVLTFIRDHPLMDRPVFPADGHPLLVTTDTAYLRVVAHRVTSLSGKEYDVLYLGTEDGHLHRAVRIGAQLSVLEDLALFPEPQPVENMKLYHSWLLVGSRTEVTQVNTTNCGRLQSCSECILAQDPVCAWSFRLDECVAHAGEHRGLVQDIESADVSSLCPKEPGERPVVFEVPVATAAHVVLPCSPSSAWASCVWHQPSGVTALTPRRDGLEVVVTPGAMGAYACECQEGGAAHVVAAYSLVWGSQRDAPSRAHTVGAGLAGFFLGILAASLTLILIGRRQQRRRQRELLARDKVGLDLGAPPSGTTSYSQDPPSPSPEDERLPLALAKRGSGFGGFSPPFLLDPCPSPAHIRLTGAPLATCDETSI

Variants of: B1
Conditions: with acv1b_human ACVR1B

Variant | effect of a mutation on the interaction
MSRVPSPPPPAEMSSGPVAESWCYTQIKVVKFSYMWTINNFSFCREEMGEVIKSSTFSSGANDKLKWCLRVNPKGLDEESKDYLSLYLLLVSCPKSEVRAKFKFSILNAKGEETKAMESQRAYRFVQGKDWGVKKFIRRDFLLDEANGLLPDDKLTLFCEVSVVQDSVNISGQNTMNMVKVPECRLADELGGLWENSRFTDCCLCVAGQEFQAHKAILAARSPVFSAMFEHEMEESKKNRVEINDVEPEVFKEMMCFIYTGKAPNLDKMADDLLAAADKYALERLKVMCEDALCSNLSVENAAEILILADLHSADQLKTQAVDFINYHASDVLETSGWKSMVVSHPHLVAEAYRSLASAQCPFLGPPRKRLKQS [F133V] | with no effect

Variants of: B1
Conditions: with acv1b_human ACVR1B
Remark: another data set of the same source

Variant | effect of a mutation on the interaction
MSRVPSPPPPAEMSSGPVAESWCYTQIKVVKFSYMWTINNFSFCREEMGEVIKSSTFSSGANDKLKWCLRVNPKGLDEESKDYLSLCLLLVSCPKSEVRAKFKFSILNAKGEETKAMESQRAYRFVQGKDWGFKKFIRRDFLLDEANGLLPDDKLTLFCEVSVVQDSVNISGQNTMNMVKVPECRLADELGGLWENSRFTDCCLCVAGQEFQAHKAILAARSPVFSAMFEHEMEESKKNRVEINDVEPEVFKEMMCFIYTGKAPNLDKMADDLLAAADKYALERLKVMCEDALCSNLSVENAAEILILADLHSADQLKTQAVDFINYHASDVLETSGWKSMVVSHPHLVAEAYRSLASAQCPFLGPPRKRLKQS [Y87C] | with no effect

Variants of: B1
Conditions: with acv1b_human ACVR1B
Remark: another data set of the same source

Variant | effect of a mutation on the interaction
MSRVPSPPPPAEMSSGPVAESWCYTQIKVVKFSYMWTINNFSFCREEMGEVIKSSTFSSGANDKLKWCLRVNPKGLDEESKDYLSLYLLLVSCPKSEVRAKCKFSILNAKGEETKAMESQRAYRFVQGKDWGFKKFIRRDFLLDEANGLLPDDKLTLFCEVSVVQDSVNISGQNTMNMVKVPECRLADELGGLWENSRFTDCCLCVAGQEFQAHKAILAARSPVFSAMFEHEMEESKKNRVEINDVEPEVFKEMMCFIYTGKAPNLDKMADDLLAAADKYALERLKVMCEDALCSNLSVENAAEILILADLHSADQLKTQAVDFINYHASDVLETSGWKSMVVSHPHLVAEAYRSLASAQCPFLGPPRKRLKQS [F102C] | with no effect

Variants of: B2
Conditions: with cabl1_human CABLES1, Q8TDN4

Variant | effect of a mutation on the interaction
G386D | with no effect

Variants of: B3
Conditions: with rasa1_human RASA1, P20936

Variant | effect of a mutation on the interaction
R361H | with no effect

Variants of: B4
Conditions: with zbtb2_human ZBTB2, Q8N680

Variant | effect of a mutation on the interaction
R361H | with no effect

Variants of: B5
Conditions: with stx2_human STX2, P32856

Variant | effect of a mutation on the interaction
G386D | with no effect

Variants of: B6
Conditions: with rab25_human RAB25, P57735

Variant | effect of a mutation on the interaction
G386D | with no effect

Variants of: B7
Conditions: with sem4f_human SEMA4F

Variant | effect of a mutation on the interaction
G386D | with no effect

Variants of: B7
Conditions: with sem4f_human SEMA4F
Remark: another data set of the same source

Variant | effect of a mutation on the interaction
G386D | causing an interaction

Variants of: B7
Conditions: with sem4f_human SEMA4F
Remark: another data set of the same source

Variant | effect of a mutation on the interaction
R361C | with no effect
